*1 amine or outer side, *2 acyl side, *3 side chain or, on linkers, in order; H or OH if unused. [ ]: non-standard residue; d: D form. TyrEtNAc = L-tyrosine O-ethyl acetamide, (S)-3-(4-(2-acetamidoethoxy)phenyl)-2-aminopropanoic acid, CC(=O)NCCOc1ccc(C[C@H](N[*:1])C(=O)[*:2])cc1; dDabMe3 = [(R)-3-amino-3-carboxypropyl]-trimethylazanium, C[N+](C)(C)CC[C@@H](N[*:1])C(=O)[*:2]; Pro(trans-4-NH2) = O=C([C@@H]1C[C@@H](N[*:3])CN1[*:1])[*:2]; Bip(4'-COOH) = N[C@@H](Cc1ccc(-c2ccc(C(=O)O)cc2)cc1)C(=O)O; 1Nal(3S-Me) = C[C@@H](c1cccc2ccccc12)[C@H](N)C(=O)O; Ala(indolin-1-yl) = N[C@@H](CN1CCc2ccccc21)C(=O)O; Trp(6-Cl) = N[C@@H](Cc1c[nH]c2cc(Cl)ccc12)C(=O)O; Phe(4-COOH) = N[C@@H](Cc1ccc(C(=O)O)cc1)C(=O)O; Trp(6-F) = N[C@@H](Cc1c[nH]c2cc(F)ccc12)C(=O)O; Trp(7-aza) = N[C@@H](Cc1c[nH]c2ncccc12)C(=O)O; hTyr = N[C@@H](CCc1ccc(O)cc1)C(=O)O; hCha = N[C@@H](CCC1CCCCC1)C(=O)O; dDab = NCC[C@@H](N)C(=O)O; dNMeA = CN[C@H](C)C(=O)O
Molecular target: Recombinant human IL-1β (BioLegend 579404) (human, UniProt P01584 117-269)
Test: cell-based or functional assay

MRC5 IC50 [nM]	Binder
0.027	cyclo([TyrEtNAc][Trp(6-F)][Phe(4-COOH)]G[Pro(trans-4-NH2)][1Nal(3S-Me)]D[dNMeA]G[Bip(4'-COOH)][Ala(indolin-1-yl)]G[dDab][hTyr]) (SMILES CC(=O)NCCOc1ccc(C[C@@H]2NC(=O)[C@H](CCc3ccc(O)cc3)NC(=O)[C@@H](CCN)NC(=O)CNC(=O)[C@H](CN3CCc4ccccc43)NC(=O)[C@H](Cc3ccc(-c4ccc(C(=O)O)cc4)cc3)NC(=O)CNC(=O)[C@@H](C)N(C)C(=O)[C@H](CC(=O)O)NC(=O)[C@H]([C@@H](C)c3cccc4ccccc34)NC(=O)[C@@H]3C[C@@H](N)CN3C(=O)CNC(=O)[C@H](Cc3ccc(C(=O)O)cc3)NC(=O)[C@H](Cc3c[nH]c4cc(F)ccc34)NC2=O)cc1) [SEQ ID NO: 211 (Example No. 211)]
0.025	cyclo([TyrEtNAc][Trp(6-F)][Phe(4-COOH)]G[Pro(trans-4-NH2)][1Nal(3S-Me)]D[dNMeA]G[Bip(4'-COOH)][Trp(7-aza)]S[dDab][hCha]) (SMILES CC(=O)NCCOc1ccc(C[C@@H]2NC(=O)[C@H](CCC3CCCCC3)NC(=O)[C@@H](CCN)NC(=O)[C@H](CO)NC(=O)[C@H](Cc3c[nH]c4ncccc34)NC(=O)[C@H](Cc3ccc(-c4ccc(C(=O)O)cc4)cc3)NC(=O)CNC(=O)[C@@H](C)N(C)C(=O)[C@H](CC(=O)O)NC(=O)[C@H]([C@@H](C)c3cccc4ccccc34)NC(=O)[C@@H]3C[C@@H](N)CN3C(=O)CNC(=O)[C@H](Cc3ccc(C(=O)O)cc3)NC(=O)[C@H](Cc3c[nH]c4cc(F)ccc34)NC2=O)cc1) [SEQ ID NO: 212 (Example No. 212)]

The next lines start with the binder.

Binder	MRC5 IC50 [nM]
cyclo([TyrEtNAc]W[Phe(4-COOH)]G[Pro(trans-4-NH2)][1Nal(3S-Me)]D[dNMeA]G[Bip(4'-COOH)][Trp(7-aza)]G[dDab][hTyr]) (SMILES CC(=O)NCCOc1ccc(C[C@@H]2NC(=O)[C@H](CCc3ccc(O)cc3)NC(=O)[C@@H](CCN)NC(=O)CNC(=O)[C@H](Cc3c[nH]c4ncccc34)NC(=O)[C@H](Cc3ccc(-c4ccc(C(=O)O)cc4)cc3)NC(=O)CNC(=O)[C@@H](C)N(C)C(=O)[C@H](CC(=O)O)NC(=O)[C@H]([C@@H](C)c3cccc4ccccc34)NC(=O)[C@@H]3C[C@@H](N)CN3C(=O)CNC(=O)[C@H](Cc3ccc(C(=O)O)cc3)NC(=O)[C@H](Cc3c[nH]c4ccccc34)NC2=O)cc1) [SEQ ID NO: 215 (Example No. 215)]	0.024
cyclo([TyrEtNAc]W[Phe(4-COOH)]G[Pro(trans-4-NH2)][1Nal(3S-Me)]D[dNMeA]G[Bip(4'-COOH)][Trp(7-aza)]G[dDab][hCha]) (SMILES CC(=O)NCCOc1ccc(C[C@@H]2NC(=O)[C@H](CCC3CCCCC3)NC(=O)[C@@H](CCN)NC(=O)CNC(=O)[C@H](Cc3c[nH]c4ncccc34)NC(=O)[C@H](Cc3ccc(-c4ccc(C(=O)O)cc4)cc3)NC(=O)CNC(=O)[C@@H](C)N(C)C(=O)[C@H](CC(=O)O)NC(=O)[C@H]([C@@H](C)c3cccc4ccccc34)NC(=O)[C@@H]3C[C@@H](N)CN3C(=O)CNC(=O)[C@H](Cc3ccc(C(=O)O)cc3)NC(=O)[C@H](Cc3c[nH]c4ccccc34)NC2=O)cc1) [SEQ ID NO: 214 (Example No. 214)]	0.02
cyclo([TyrEtNAc][Trp(6-F)][Phe(4-COOH)]G[Pro(trans-4-NH2)][1Nal(3S-Me)]D[dNMeA]G[Bip(4'-COOH)][Trp(7-aza)]S[dDabMe3][hCha]) (SMILES CC(=O)NCCOc1ccc(C[C@@H]2NC(=O)[C@H](CCC3CCCCC3)NC(=O)[C@@H](CC[N+](C)(C)C)NC(=O)[C@H](CO)NC(=O)[C@H](Cc3c[nH]c4ncccc34)NC(=O)[C@H](Cc3ccc(-c4ccc(C(=O)O)cc4)cc3)NC(=O)CNC(=O)[C@@H](C)N(C)C(=O)[C@H](CC(=O)O)NC(=O)[C@H]([C@@H](C)c3cccc4ccccc34)NC(=O)[C@@H]3C[C@@H](N)CN3C(=O)CNC(=O)[C@H](Cc3ccc(C(=O)O)cc3)NC(=O)[C@H](Cc3c[nH]c4cc(F)ccc34)NC2=O)cc1) [SEQ ID NO: 213 (Example No. 213)]	0.018
cyclo([TyrEtNAc][Trp(6-Cl)][Phe(4-COOH)]G[Pro(trans-4-NH2)][1Nal(3S-Me)]D[dNMeA]G[Bip(4'-COOH)][Trp(7-aza)]S[dDab][hCha]) (SMILES CC(=O)NCCOc1ccc(C[C@@H]2NC(=O)[C@H](CCC3CCCCC3)NC(=O)[C@@H](CCN)NC(=O)[C@H](CO)NC(=O)[C@H](Cc3c[nH]c4ncccc34)NC(=O)[C@H](Cc3ccc(-c4ccc(C(=O)O)cc4)cc3)NC(=O)CNC(=O)[C@@H](C)N(C)C(=O)[C@H](CC(=O)O)NC(=O)[C@H]([C@@H](C)c3cccc4ccccc34)NC(=O)[C@@H]3C[C@@H](N)CN3C(=O)CNC(=O)[C@H](Cc3ccc(C(=O)O)cc3)NC(=O)[C@H](Cc3c[nH]c4cc(Cl)ccc34)NC2=O)cc1) [SEQ ID NO: 210 (Example No. 210)]	0.02

— US20230406885A1, “CYCLIC PEPTIDES FOR TRAPPING INTERLEUKIN-1 BETA” (MERCK SHARP & DOHME LLC, priority 2022, published 2023)
